Source: article PMC3941056 (The Journal of Cell Biology, 2014)

Target: the molecule itself
Assay: fluorescence correlation spectroscopy

B1: HsSAS-6–[F131E] with a C-terminal GFP (natural protein, human, UniProt Q6UVJ0 1-657, looked up)
chain: MSQVLFHQLVPLQVKCKDCEERRVSIRMSIELQSVSNPVHRKDLVIRLTDDTDPFFLYNLVISEEDFQSLKFQQGLLVDFLAFPQKFIDLLQQCTQEHAKEIPRFLLQLVSPAAILDNSPAFLNVVETNPEKHLTHLSLKLLPGNDVEIKKFLAGCLKCSKEEKLSLMQSLDDATKQLDFTRKTLAEKKQELDKLRNEWASHTAALTNKHSQELTNEKEKALQAQVQYQQQHEQQKKDLEILHQQNIHQLQNRLSELEAANKDLTERKYKGDSTIRELKAKLSGVEEELQRTKQEVLSLRRENSTLDVECHEKEKHVNQLQTKVAVLEQEIKDKDQLVLRTKEAFDTIQEQKVVLEENGEKNQVQLGKLEATIKSLSAELLKANEIIKKLQGDLKTLMGKLKLKNTVTIQQEKLLAEKEEKLQKEQKELQDVGQSLRIKEQEVCKLQEQLEATVKKLEESKQLLKNNEKLITWLNKELNENQLVRKQDVLGPSTTPPAHSSSNTIRSGISPNLNVVDGRLTYPTCGIGYPVSSAFAFQNTFPHSISAKNTSHPGSGTKVQFNLQFTKPNASLGDVQSGATISMPCSTDKENGENVGLESKYLKKREDSIPLRGLSQNLFSNSDHQRDGTLGALHTSSKPTALPSASSAYFPGQLPNS
B1 was tested, and the “brightness relative to monomeric GFP” value was about 1.6 fold and the “stoichiometry N” value was 2.
